Laboratory results published in patent US20020177126A1 (published 2002).
“And” between values parts separate entries of the source, which are not always exact repeats. Identical values can stand only once.

How the values were obtained:
[1] = target: T1, F protein of wild type RSV A/Long (respiratory syncytial virus, strain …, UniProt P12568 26-574); experiment: cell-based or functional assay
[2] = target: T1, F protein of wild type RSV A/Long; experiment: cell-based or functional assay; remark: listed apart in the source
[3] = target: Bac-F (UniProt P03420 26-524); experiment: BIAcore, Mab vs Bac-F, 1:1
[4] = target: F protein (RSV F glycoprotein immobilised on the BIAcore sensor chip) (respiratory syncytial virus (RSV), UniProt P03420 26-524); experiment: BIAcore, immobilised F protein
[5] = target: T2, F protein of RSV A/Long MARM B1 (respiratory syncytial virus, strain …, UniProt P12568 26-574); experiment: IFA on MARM-infected HEp-2 cells
T2 construct: whole, on cells

[6] = target: T3, F protein of RSV A/Long MARM B2 (respiratory syncytial virus, strain …, UniProt P12568 26-574); experiment: IFA on MARM-infected HEp-2 cells
T3 construct: whole, on cells

[7] = target: T4, F protein of RSV A/Long MARM B3 (respiratory syncytial virus, strain …, UniProt P12568 26-574); experiment: IFA on MARM-infected HEp-2 cells
T4 construct: whole, on cells

[8] = target: T5, F protein of RSV A/Long MARM B4 (respiratory syncytial virus, strain …, UniProt P12568 26-574); experiment: IFA on MARM-infected HEp-2 cells
T5 construct: whole, on cells

[9] = target: T6, F protein of RSV A/Long MARM B6 (respiratory syncytial virus, strain …, UniProt P12568 26-574); experiment: IFA on MARM-infected HEp-2 cells
T6 construct: whole, on cells

[10] = target: T7, F protein of RSV A/Long MARM B7 (respiratory syncytial virus, strain …, UniProt P12568 26-574); experiment: IFA on MARM-infected HEp-2 cells
T7 construct: whole, on cells

[11] = target: T8, F protein of RSV A/Long MARM B8 (respiratory syncytial virus, strain …, UniProt P12568 26-574); experiment: IFA on MARM-infected HEp-2 cells
T8 construct: whole, on cells

[12] = target: T9, F protein of RSV A/Long MARM B10 (respiratory syncytial virus, strain …, UniProt P12568 26-574); experiment: IFA on MARM-infected HEp-2 cells
T9 construct: whole, on cells

[13] = target: T10, F protein of RSV A/Long MARM B13 (respiratory syncytial virus, strain …, UniProt P12568 26-574); experiment: IFA on MARM-infected HEp-2 cells
T10 construct: whole, on cells

[14] = target: T11, F protein of RSV A/Long MARM B14 (respiratory syncytial virus, strain …, UniProt P12568 26-574); experiment: IFA on MARM-infected HEp-2 cells
T11 construct: whole, on cells

[15] = target: T12, F protein of RSV A/Long MARM B15 (respiratory syncytial virus, strain …, UniProt P12568 26-574); experiment: IFA on MARM-infected HEp-2 cells
T12 construct: whole, on cells

[16] = target: T13, F protein of RSV A/Long MARM #6 (selected with A4B4) (respiratory syncytial virus, strain …, UniProt P12568 26-574); experiment: IFA on MARM-infected HEp-2 cells
T13 construct: whole, on cells

[17] = target: T14, F protein of RSV A/Long MARM #9 (selected with A4B4) (respiratory syncytial virus, strain …, UniProt P12568 26-574); experiment: IFA on MARM-infected HEp-2 cells
T14 construct: whole, on cells

[18] = target: T15, F protein of RSV A/Long MARM #10 (selected with A4B4) (respiratory syncytial virus, strain …, UniProt P12568 26-574); experiment: IFA on MARM-infected HEp-2 cells
T15 construct: whole, on cells

[19] = target: T16, F protein of RSV A/Long MARM #11 (selected with A4B4) (respiratory syncytial virus, strain …, UniProt P12568 26-574); experiment: IFA on MARM-infected HEp-2 cells
T16 construct: whole, on cells

[20] = target: T17, F protein of RSV A/Long MARM B9 (respiratory syncytial virus, strain …, UniProt P12568 26-574); experiment: IFA on MARM-infected HEp-2 cells
T17 construct: whole, on cells

[21] = target: T18, F protein of MARM #13 (selected with A4B4 from MARM B9) (respiratory syncytial virus, strain …, UniProt P12568 26-574); experiment: IFA on MARM-infected HEp-2 cells
T18 construct: whole, on cells

B1: SYNAGIS® (antibody, V domains shown)
VH: QVTLRESGPALVKPTQTLTLTCTFSGFSLSTSGMSVGWIRQPPGKALEWLADIWWDDKKDYNPSLKSRLTISKDTSKNQVVLKVTNMDPADTATYYCARSMITNWYFDVWGAGTTVTVSS
VL: DIQMTQSPSTLSASVGDRVTITCKCQLSVGYMHWYQQKPGKAPKLLIYDTSKLASGVPSRFSGSGSGTEFTLTISSLQPDDFATYYCFQGSGYPFTFGGGTKLEIK
notes: also called SYNAGIS ®/SYNAGIS ® (HC/LC)
B1 was tested. Which “EC50, RSV (Long) microneutralization” value [1] did it give?
The value was 3.57 nM.

What about the “Mean IC50 (Control), RSV microneutralization” value [2] of the same binder?
Its value is 0.535 µg/mL.

And the “Mean IC50 (Curve), RSV microneutralization” value [2]?
The value was 0.453 µg/mL.

And the Kd [3]?
The Kd was 3.9 nM.

What about the koff [3] of the same binder?
Its koff is 0.000515 s⁻¹.

And the kon [3]?
The kon was 132000 M⁻¹ s⁻¹.

What about the “number in parentheses after KD (fold vs SYNAGIS)” value [3] of the same binder?
The value was 1 fold.

And the koff [4]?
The koff was 0.000764 s⁻¹ and 0.000738 s⁻¹ and 0.000702 s⁻¹.

What about the kon [4] of the same binder?
Its kon is 204000 M⁻¹ s⁻¹ and 189000 M⁻¹ s⁻¹ and 218000 M⁻¹ s⁻¹.

Does B1 bind [5]?
Result: no binding (tested: 250 ng/ml)

Does B1 bind [6]?
Result: no binding (tested: 250 ng/ml)

Does B1 bind [7]?
Result: no binding (tested: 250 ng/ml)

Does B1 bind [8]?
Result: no binding (tested: 250 ng/ml)

Does B1 bind [9]?
Result: no binding (tested: 250 ng/ml)

Does B1 bind [10]?
Result: no binding (tested: 250 ng/ml)

Does B1 bind [11]?
Result: no binding (tested: 250 ng/ml)

Does B1 bind [12]?
Result: no binding (tested: 250 ng/ml)

Does B1 bind [13]?
Result: no binding (tested: 250 ng/ml)

Does B1 bind [14]?
Result: no binding (tested: 250 ng/ml)

Does B1 bind [15]?
Result: no binding (tested: 250 ng/ml)

Does B1 bind [16]?
Result: no binding (tested: 250 ng/ml)

Does B1 bind [17]?
Result: no binding (tested: 250 ng/ml)

Does B1 bind [18]?
Result: no binding (tested: 250 ng/ml)

Does B1 bind [19]?
Result: no binding (tested: 250 ng/ml)

Does B1 bind [20]?
Result: no binding (tested: 250 ng/ml)

Does B1 bind [21]?
Result: no binding (tested: 250 ng/ml)
